{"source": "patent US8273342B2", "about": "“Anti-virus therapy for respiratory diseases” (University of Southampton, priority 2004, dated 2012)", "molecules": {"B1": {"name": "IFN-λ1: type III interferon, Interferon λ-1 also known as IL-29, amino acid sequence SEQ ID NO: 5 (protein, listed as Homo sapiens)", "chain": "MAAAWTVVLVTLVLGLAVAGPVPTSKPTTTGKGCHIGRFKSLSPQELASFKKARDALEESLKLKNWSCSSPVFPGNWDLRLLQVRERPVALEAELALTLKVLEAAAGPALEDVLDQPLHTLHHILSQLQACIQPQPTAGPRPRGRLHHWLHRLQEAPKKESAGCLEASVTFNLFRLLTRDLKYVADGNLCLRTSTHPEST"}, "B2": {"name": "IFN-β-ser: recombinant interferon-beta serine, nasal drops tested in published prophylaxis trials (protein, UniProt P01574 22-187, looked up, variant C17S)", "Interferon beta": "MSYNLLGFLQRSSNFQSQKLLWQLNGRLEYCLKDRMNFDIPEEIKQLQQFQKEDAALTIYEMLQNIFAIFRQDSSSTGWNETIVENLLANVYHQINHLKTVLEEKLEKEDFTRGKLMSSLHLKRYYGRILHYLKAKEYSHCAWTIVRVEILRNFYFINRLTGYLRN"}}, "key": {"rhinovirus [1]": {"system": "rhinovirus", "assay": "Virus induced cytopathic effect in HeLa cell titration assay", "format": "cell-based"}, "RV16 [2]": {"system": "RV16", "assay": "RV16 virus release, viral titration of BEAS2B supernatant", "format": "cell-based, rhinovirus", "conditions": "BEAS2B cells treated 24 h with different doses of IFN-λ1 before infection", "protocol": "(§1) The human bronchial epithelial cell-line BEAS2B was infected with RV. TaqMan® PCR was used to identify IFN-λs mRNA expression and a bioassay was employed for corresponding protein production. BEAS2B cells were treated for 24 h with different doses of IFN-λ1 before infection with RV. Both TaqMan® PCR for viral RNA in cell lysates and viral titration of the BEAS2B supernatant were performed to investigate the antiviral effect.\n(§2) The human bronchial epithelial cell-line BEAS2B and bronchial primary cells from asthmatics (6) and normal patients (5) were infected with RV16. TaqMan® PCR for IFN-λ mRNA expression was used. BEAS2B cells were treated with IFN-λ1 before infection with RV16. Both TaqMan® PCR for viral RNA in cell lysates and viral titration of the BEAS2B supernatant were performed to investigate the antiviral effect. TaqMan® PCR for viral RNA in cell lysates of primary cells was used also to test weather RV16 infectivity was different between primary cells from asthmatics and normals."}, "BEAS2B cells": {"system": "BEAS2B cells", "assay": "Induction of type I and type III interferons in BEAS2B cells", "format": "cell-based, human"}, "RV16 [3]": {"system": "RV16", "assay": "RV16 viral RNA in BEAS2B cell lysates, TaqMan PCR", "format": "cell-based, rhinovirus", "conditions": "BEAS2B cells treated 24 h with different doses of IFN-λ1 before infection", "protocol": "as §1, §2"}, "natural colds": {"system": "natural colds", "conditions": "Sperber et al. 1989; cited from earlier work"}, "rhinovirus [4]": {"system": "rhinovirus", "conditions": "general population volunteers, Higgins et al. 1986; cited from earlier work"}}, "data": [{"molecule": "B1", "values": [{"measurement": "virus induced cytopathic effect", "setting": "rhinovirus [1]", "value": "inhibited"}, {"measurement": "virus release in the supernatant by viral titration", "setting": "RV16 [2]", "value": "dose-dependent anti-viral effect"}, {"measurement": "virus release in the supernatant by viral titration", "setting": "RV16 [2]; listed as IFNλ-1", "value": "reducing virus release"}, {"measurement": "induction of IFNλ-1, IFNλ2-3 and interferon β", "setting": "BEAS2B cells", "value": "induces itself as well as IFNλ2-3 and interferon β"}, {"measurement": "rhinovirus 16 viral RNA in cell lysates", "setting": "RV16 [3]", "value": "dose-dependent anti-viral effect"}, {"measurement": "rhinovirus 16 viral RNA in cell lysates", "setting": "RV16 [3]; listed as IFNλ-1", "value": "reducing rhinovirus 16 viral RNA expression"}]}, {"molecule": "B2", "values": [{"measurement": "prophylaxis of natural colds", "setting": "natural colds", "value": "ineffective"}, {"measurement": "effect against experimental rhinovirus infection", "setting": "rhinovirus [4]", "value": "promising beneficial effects"}]}]}
